Source: patent publication US20080131434A1 (ONCOMED PHARMACEUTICALS, published 2008)

Assays:
[1] = target: T1, NOTCH1 EGF 1-3 Fc fusion protein (human, UniProt P46531 19-139, limits assumed); experiment: Western blot, SDS-PAGE of Fc fusion proteins
T1 construct: domain: EGF 1-3; Member of the nested deletion series; not shown: Fc
T1 sequence (looked up): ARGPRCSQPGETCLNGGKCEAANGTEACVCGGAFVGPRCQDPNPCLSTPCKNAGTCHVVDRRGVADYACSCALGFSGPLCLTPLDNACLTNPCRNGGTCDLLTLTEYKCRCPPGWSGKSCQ
Source text: (§1) FIG. 1: Epitope mapping of anti-NOTCH1 monoclonal antibodies that bind to non-ligand binding domains.
(§2) To identify antibodies that recognize specific non-ligand binding regions of the NOTCH receptor extracellular domains, epitope mapping was preformed. In certain embodiments, mammalian expression plasmid vectors comprising a CMV promoter upstream of polynucleotides that encode fragments of the extracellular NOTCH1 domain as Fc fusion proteins were generated using standard recombinant DNA technology. These fusion proteins included a series of NOTCH1 fragments containing a nested series of deletions of EGF domains 1-5 or 10-15. Recombinant proteins were then expressed in cultured mammalian cells by transient transfection. Twenty-four to 48 hours following transfection, cells were harvested and cell lysate protein separated on non-reducing SDS-PAGE acrylamide gels for Western blotting using antibodies from mice immunized with NOTCH1 antigen. […] All antibody affinities were determined by BIAcore.

[2] = target: T2, NOTCH1 EGF 5 Fc fusion protein (human, UniProt P46531 178-220, limits assumed); experiment: Western blot, SDS-PAGE of Fc fusion proteins
T2 construct: domain: EGF 5; Member of the nested deletion series; also called EGF 5 alone; not shown: Fc
T2 chain (looked up): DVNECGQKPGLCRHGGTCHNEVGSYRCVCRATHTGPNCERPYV
Source text: as §1, §2

[3] = target: T3, NOTCH1 (construct used in the assay not stated) (human, UniProt P46531 19-220, limits assumed); experiment: BIAcore; format and NOTCH1 construct not stated
T3 sequence (looked up): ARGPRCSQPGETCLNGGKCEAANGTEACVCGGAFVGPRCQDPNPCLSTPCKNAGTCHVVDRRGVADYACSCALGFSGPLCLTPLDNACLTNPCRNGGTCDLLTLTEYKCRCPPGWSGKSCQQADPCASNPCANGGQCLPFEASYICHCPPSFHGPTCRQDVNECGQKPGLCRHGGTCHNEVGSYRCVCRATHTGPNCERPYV

EGF1 = target: T4, EGF1; experiment: Western blot of Fc fusion proteins of the antigen deletion series, non-reduced SDS-PAGE
T4 construct: member of the EGF 1-5 deletion series; also called NOTCH1 EGF 1 Fc fusion protein (deletion series)
T4 chain: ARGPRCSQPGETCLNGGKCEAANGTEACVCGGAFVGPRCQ
Source text: as §1, §2

EGF1-2 = target: T5, EGF1-2; experiment: as above
T5 construct: member of the EGF 1-5 deletion series; also called NOTCH1 EGF 1-2 Fc fusion protein (deletion series)
T5 chain: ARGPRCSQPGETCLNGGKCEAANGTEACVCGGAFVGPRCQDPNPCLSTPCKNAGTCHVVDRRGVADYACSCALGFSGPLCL
Source text: as §1, §2

EGF2-5 = target: T6, EGF2-5; experiment: as above
T6 construct: member of the EGF 1-5 deletion series; also called NOTCH1 EGF 2-5 Fc fusion protein (deletion series)
T6 chain: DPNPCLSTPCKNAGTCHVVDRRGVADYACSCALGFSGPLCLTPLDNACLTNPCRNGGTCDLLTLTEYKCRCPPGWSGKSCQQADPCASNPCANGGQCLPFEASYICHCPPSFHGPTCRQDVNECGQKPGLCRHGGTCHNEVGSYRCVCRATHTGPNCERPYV
Source text: as §1, §2

- binding result [1]: no binding
- binding result [2]: no binding
- Kd [3]: 0.2 nM
- binding result (EGF1): no binding
- binding result (EGF1-2): no binding
- binding result (EGF2-5): binds
B1: anti-NOTCH1 monoclonal antibody 13M57 (antibody, mouse IgG1, kappa, V domains shown)
VH: EVNLVESGGDLVQPGGSLRLSCAASGFTFSSYTMSWVRQTPEKRLEWVAYIDYGGDFTSYSDAIRGRFTISRDNAKNTLYLQMSSLKSEDTAIYYCSRRRYDAMDYWGQGTSVIVSS
VL: DIQMTQSTSSLSASLGDRVTVSCSASQAISNYLNWYQQKPDGTLKLLIYYTTNLHSGVPSRFSGSGSGTDYSLTISNLEPEDIATYYCQQYSKFPWTFGGGTKLEIKR
notes: Murine hybridoma antibody raised against NOTCH1 EGF repeats 1-5; Conjugated to Alexa Fluor 647 for some FACS work; also called 13M30
